Biological target: T1, FLAG-tagged wild-type (wt) ARRDC1 (Homo sapiens, UniProt Q8N5I2 1-433)
T1 construct: Expressed in 293T cells and immunoprecipitated with anti-FLAG; also called Flag-ARRDC1; arrestin domain-containing protein 1; not shown: FLAG tag
T1 sequence: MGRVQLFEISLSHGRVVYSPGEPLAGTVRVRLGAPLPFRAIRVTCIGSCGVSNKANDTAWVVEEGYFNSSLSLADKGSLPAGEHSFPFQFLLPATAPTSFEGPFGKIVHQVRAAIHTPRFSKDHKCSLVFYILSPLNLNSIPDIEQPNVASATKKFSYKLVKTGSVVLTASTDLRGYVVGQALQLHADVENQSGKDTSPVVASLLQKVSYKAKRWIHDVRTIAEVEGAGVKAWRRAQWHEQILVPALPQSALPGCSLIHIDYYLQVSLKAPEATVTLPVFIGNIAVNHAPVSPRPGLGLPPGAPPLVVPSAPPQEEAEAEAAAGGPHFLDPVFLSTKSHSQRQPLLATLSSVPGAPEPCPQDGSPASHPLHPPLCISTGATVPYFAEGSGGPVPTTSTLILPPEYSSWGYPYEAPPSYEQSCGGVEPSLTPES
Test: co-immunoprecipitation from transfected 293T cells, Western blot (FIG. 1D)

binding result: no binding
B1: HA-tagged mutant (M95A) TSG101 (other)
chain: MAVSESQLKKMVSKYKYRDLTVRETVNVITLYKDLKPVLDSYVFNDGSSRELMNLTGTIPVPYRGNTYNIPICLWLLDTYPYNPPICFVKPTSSATIKTGKHVDANGKIYLPYLHEWKHPQSDLLGLIQVMIVVFGDEPPVFSRPISASYPPYQATGPPNTSYMPGMPGGISPYPSGYPPNPSGYPGCPYPPGGPYPATTSSQYPSQPPVTTVGPSRDGTISEDTIRASLISAVSDKLRWRMKEEMDRAQAELNALKRTEEDLKKGHQKLEEMVTRLDQEVAEVDKNIELLKKKDEELSSALEKMENQSENNDIDEVIIPTAPLYKQILNLYAEENAIEDTIFYLGEALRRGVIDLDVFLKHVRLLSRKQFQLRALMQKARKTAGLSDLY
notes: Expressed in 293T cells; also called TSG101 M95A; not shown: HA tag
